What was measured:
ACE2 ectodomain (ACE2e) = ACE2 ectodomain (ACE2e) (Homo sapiens, UniProt Q9BYF1 Q9BYF1:19-615); assay: flow; details: tags: N-terminal myc, C-terminal HRV 3C site and 8xHis; FreeStyle 293F expressed
[1] = molecular target: SARS-CoV-2 spike receptor-binding domain (RBD) (SARS-CoV-2, UniProt P0DTC2 P0DTC2:319-591); assay: flow

ACE2 ectodomain (ACE2e), sequence (Q9BYF1 19-615, one chain of several): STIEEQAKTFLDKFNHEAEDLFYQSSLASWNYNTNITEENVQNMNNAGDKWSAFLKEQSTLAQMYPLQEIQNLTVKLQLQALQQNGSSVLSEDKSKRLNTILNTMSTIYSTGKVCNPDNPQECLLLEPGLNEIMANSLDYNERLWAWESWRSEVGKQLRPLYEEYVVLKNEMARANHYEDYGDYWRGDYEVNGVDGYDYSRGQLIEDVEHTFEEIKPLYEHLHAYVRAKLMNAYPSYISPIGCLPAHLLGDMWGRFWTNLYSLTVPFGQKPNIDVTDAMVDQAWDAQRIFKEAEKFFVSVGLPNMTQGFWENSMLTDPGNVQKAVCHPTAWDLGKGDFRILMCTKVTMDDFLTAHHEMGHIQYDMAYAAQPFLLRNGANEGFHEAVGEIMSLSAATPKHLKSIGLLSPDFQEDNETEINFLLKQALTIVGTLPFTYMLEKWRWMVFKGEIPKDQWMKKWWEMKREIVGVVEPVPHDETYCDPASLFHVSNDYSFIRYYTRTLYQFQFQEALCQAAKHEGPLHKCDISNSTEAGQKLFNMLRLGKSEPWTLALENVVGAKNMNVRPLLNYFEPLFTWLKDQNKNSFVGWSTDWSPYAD

Binder | binding result (ACE2 ectodomain (ACE2e)) | binding result [1]
SP7 (ssDNA) DNA: GGGAGAGGAGGGAGATAGATATCAAAGGAGGGTAGGTAGTGCTTGGTAGGGAAACTCCGCCGATTTTTCGTGGATGCCACAGGAC | no binding | no binding
SP8 (ssDNA) DNA: GGGAGAGGAGGGAGATAGATATCAAAAGGAGGGTAGGTAGTGCTTGGTAGGGAAACTCCGCCGATTTTTCGTGGATGCCACAGGAC | no binding | no binding
SP6 (ssDNA) DNA: GGGAGAGGAGGGAGATAGATATCAACCCATGGTAGGTATTGCTTGGTAGGGATAGTGGGCTTGATGTTTCGTGGATGCCACAGGAC | no binding | no binding
SP5 (ssDNA) DNA: GGGAGAGGAGGGAGATAGATATCAACCATGGTAGGTATTGCTTGGTAGGGATAGTGGGCTTGATGTTTCGTGGATGCCACAGGAC | no binding | no binding

— US20240076680 (RHEINISCHE FRIEDRICH-WILHELMS-UNIVERSITÄt BONN, published 2024)
